Data from patent publication US20190184015A1, “IRRADIATION TREATMENT OF NEUROLOGICAL SENSATIONS BY PHOTOABLATION” (European Molecular Biology Laboratory, priority 2016, published 2019).
“Also recorded” adds a separate entry of the source.

Assays:
[1] = molecular target: TrkB (Homo sapiens, UniProt Q16620); test: NGF^SNAP binding to Trk expressing cells
[2] = molecular target: TrkC (Homo sapiens, UniProt Q16288); test: NGF^SNAP binding to Trk expressing cells
[3] = test system: pain signaling (TrkA); test: Mechanical hypersensitivity after injection of the NGF ligand into the paw; format: in vivo, mouse; settings: injected into the paw of mice
[4] = test system: primary keratinocytes; test: In-vitro photo-ablation of primary keratinocytes (propidium iodide staining); format: cell-based, mouse; settings: near infra-red light, 24 hours after
Protocol: 1 μM IL31^SNAP and 3 μM BG-IR700 were coupled for 1 hour at 37° C. The coupling reaction was applied for 10 minutes at 37° C. on primary wild type and IL31RA^−/− keratinocytes. Cells were then exposed to near infra-red light (680 nm) at 40 J/cm^2 for 2 minutes. 24 hours after light exposure cell death was assessed by Propidium iodide (PI) staining (Invitrogen #P3566) and cells were imaged with an epifluorescent microscope.

[5] = test system: IL31 receptor expressing cells; test: In-vivo photo-ablation of skin, TUNEL assay; set-up: species or system mouse; settings: IL31RA^−/− mice; injection and near infrared light
[6] = test system: IL31 evoked scratching behavior; test: Scratching during three days of IL31^SNAP-IR700 injection and illumination; settings: injected three consecutive days and skin illuminated
[7] = test system: acute itch evoked by IL31, histamine, chloroquine or LY344864; test: Pruritogen evoked scratching after photoablation; format: in vivo, mouse
Protocol: To characterize IL31^K138A-SNAP mediated photoablation in vivo, the inventors first tested its efficacy at alleviating IL31 provoked itch. Mice were treated for three consecutively days with IL31^K138A-SNAP-IR700 and the skin was illuminated with near-IR light. Strikingly, IL31-induced scratching behavior was abolished in these animals (FIG. 2f), and this persisted throughout an 8 week observation period (Supplementary FIG. 2l). […] The inventors next tested the effects of photoablation on scratching provoked by other acutely applied pruritogens. […] Finally, to assess the specificity of photoablation to itch sensation, the inventors examined other sensory modalities after treatment.

[8] = test system: thermal sensitivity; test: Hot plate test after photoablation in the hind paw; format: in vivo, mouse
Protocol: Mice were injected for three consecutive days with […] coupled with BG-IR700 with or without near IR light illumination. 3 days after the last injection, mice were placed on top of a hot plate (Ugo Basile #35150) that was preset to 52° C. and the latency to response as distinguished by flicking or licking of the hind paw was observed. In order to avoid injury to the mice, a cutoff of 30 seconds was set.

[9] = test system: mechanical sensitivity; test: Von Frey test after photoablation in the hind paw; format: in vivo, mouse
Protocol: Mice were habituated on an elevated platform with a mesh floor for 30 minutes. The plantar side of the hind paw was stimulated with calibrated von-Frey filaments (North coast medical #NC12775-99) to assess baseline levels of mechanical sensitivity. The stimulation was then repeated at the 3rd day after the last photoablation performed on the same paw considered for the baseline. As a control group, the animals were injected but not illuminated. The 50% paw withdrawal thresholds were calculated using the Up-Down method (26).

[10] = test system: IL31RA expressing cells; test: Cell type specificity of photo-ablation in skin; format: in vivo
[11] = test system: Calcipotriol model of atopic dermatitis; test: Calcipotriol model of atopic dermatitis
[12] = molecular target: T1, TrkA/p75 (Homo sapiens, UniProt P04629); test: BDNF^SNAP labelling of transfected HEK293T cells; format: binding; settings: labelled with SNAP-Surface647
T1 construct: expressed in transfected cells; host or cells: HEK293T
Source text: (§1) In light of the clinical importance of mechanical allodynia in neuropathic pain patients, it was sought to develop a pharmacological strategy to exploit the striking selectivity of TrkB to the peripheral neurons which provoke this pain state. It was reasoned that BDNF, the ligand for TrkB, may give access to these neurons and allow for their manipulation in wildtype, non-transgenic animals. To this end the inventors produced a recombinant BDNF protein with a SNAP-tag fused to its C-terminus that would enable its chemical derivatization. BDNF^SNAP was labelled in vitro with fluorescent SNAP-Surface647 substrate and applied to HEK293T cells expressing neurotrophin receptors.

[13] = molecular target: T2, TrkB/p75 (Homo sapiens, UniProt Q16620); test: BDNF^SNAP labelling of transfected HEK293T cells; format: binding; settings: labelled with SNAP-Surface647
T2 construct: expressed in transfected cells; host or cells: HEK293T
Source text: as §1

[14] = molecular target: T3, TrkC/p75 (Homo sapiens, UniProt Q16288); test: BDNF^SNAP labelling of transfected HEK293T cells; format: binding; settings: labelled with SNAP-Surface647
T3 construct: expressed in transfected cells; host or cells: HEK293T
Source text: as §1

[15] = molecular target: T4, native TrkB receptors in DRG neurons (Mus musculus, UniProt P15209); test: BDNF^SNAP Qdot 655 labelling of dissociated DRG; format: binding; settings: conjugated to Qdot 655; dissociated DRG from TrkBCreERT2::Rosa26RFP mice
T4 construct: whether BDNF^SNAP would recognize native TrkB receptors in DRG neurons; endogenous in cells; host or cells: dissociated dorsal root ganglion neurons from TrkBCreERT2::Rosa26RFP mice
Source text: The inventors further tested whether BDNF^SNAP would recognize native TrkB receptors in DRG neurons.

[16] = after photoablation with near-IR light
[17] = prevention: injection and near IR illumination 3 days prior to Calcipotriol
[18] = rescue: subcutaneous injection and near IR light after 7 days Calcipotriol
[19] = topical application in water-in-oil micro-emulsion, near IR light

T2 sequence (Q16620 32-822, species assumed): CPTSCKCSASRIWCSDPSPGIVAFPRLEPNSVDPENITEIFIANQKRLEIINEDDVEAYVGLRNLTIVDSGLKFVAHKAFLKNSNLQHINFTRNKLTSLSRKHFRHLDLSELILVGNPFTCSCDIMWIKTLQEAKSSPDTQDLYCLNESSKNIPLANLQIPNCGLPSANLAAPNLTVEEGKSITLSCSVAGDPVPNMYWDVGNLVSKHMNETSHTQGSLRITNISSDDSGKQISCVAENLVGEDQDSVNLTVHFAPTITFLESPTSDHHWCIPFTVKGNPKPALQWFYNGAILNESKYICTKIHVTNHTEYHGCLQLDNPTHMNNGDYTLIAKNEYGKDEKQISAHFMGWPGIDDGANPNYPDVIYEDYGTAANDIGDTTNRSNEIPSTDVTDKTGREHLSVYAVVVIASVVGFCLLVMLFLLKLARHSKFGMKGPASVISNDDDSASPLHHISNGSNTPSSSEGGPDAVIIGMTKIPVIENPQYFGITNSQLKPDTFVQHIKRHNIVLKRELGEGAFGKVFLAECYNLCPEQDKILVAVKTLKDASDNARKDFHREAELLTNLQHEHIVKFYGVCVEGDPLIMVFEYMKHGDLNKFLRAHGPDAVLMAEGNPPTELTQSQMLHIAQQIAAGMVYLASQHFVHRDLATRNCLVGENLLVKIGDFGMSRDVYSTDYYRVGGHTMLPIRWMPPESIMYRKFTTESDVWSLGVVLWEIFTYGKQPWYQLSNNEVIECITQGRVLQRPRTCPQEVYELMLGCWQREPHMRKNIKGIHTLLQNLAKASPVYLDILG
Chain of TrkB (Q16620 32-822, species assumed): as above
T3 sequence (Q16288 32-839, species assumed): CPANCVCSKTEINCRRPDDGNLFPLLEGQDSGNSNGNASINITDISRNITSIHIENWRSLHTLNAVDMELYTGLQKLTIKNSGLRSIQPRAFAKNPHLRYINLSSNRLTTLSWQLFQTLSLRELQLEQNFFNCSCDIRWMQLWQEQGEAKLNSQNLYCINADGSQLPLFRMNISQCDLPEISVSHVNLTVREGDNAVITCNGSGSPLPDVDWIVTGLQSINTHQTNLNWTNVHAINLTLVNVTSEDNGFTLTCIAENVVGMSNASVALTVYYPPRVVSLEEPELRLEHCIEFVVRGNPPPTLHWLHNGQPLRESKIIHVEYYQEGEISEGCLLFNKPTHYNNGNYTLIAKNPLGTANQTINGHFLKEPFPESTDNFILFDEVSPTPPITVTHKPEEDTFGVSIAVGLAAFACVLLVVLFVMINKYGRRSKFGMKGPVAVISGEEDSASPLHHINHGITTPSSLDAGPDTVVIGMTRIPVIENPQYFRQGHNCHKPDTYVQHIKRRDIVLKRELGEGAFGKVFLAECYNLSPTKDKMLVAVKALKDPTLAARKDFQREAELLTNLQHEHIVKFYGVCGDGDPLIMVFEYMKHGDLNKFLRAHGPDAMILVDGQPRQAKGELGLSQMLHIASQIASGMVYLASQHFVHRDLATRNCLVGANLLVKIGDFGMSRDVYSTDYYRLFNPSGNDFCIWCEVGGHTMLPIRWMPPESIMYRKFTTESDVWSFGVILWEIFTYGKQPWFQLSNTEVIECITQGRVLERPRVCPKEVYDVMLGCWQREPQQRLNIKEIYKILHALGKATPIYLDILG
Chain of TrkC (Q16288 32-839, species assumed): as above
T4 sequence (P15209 32-821): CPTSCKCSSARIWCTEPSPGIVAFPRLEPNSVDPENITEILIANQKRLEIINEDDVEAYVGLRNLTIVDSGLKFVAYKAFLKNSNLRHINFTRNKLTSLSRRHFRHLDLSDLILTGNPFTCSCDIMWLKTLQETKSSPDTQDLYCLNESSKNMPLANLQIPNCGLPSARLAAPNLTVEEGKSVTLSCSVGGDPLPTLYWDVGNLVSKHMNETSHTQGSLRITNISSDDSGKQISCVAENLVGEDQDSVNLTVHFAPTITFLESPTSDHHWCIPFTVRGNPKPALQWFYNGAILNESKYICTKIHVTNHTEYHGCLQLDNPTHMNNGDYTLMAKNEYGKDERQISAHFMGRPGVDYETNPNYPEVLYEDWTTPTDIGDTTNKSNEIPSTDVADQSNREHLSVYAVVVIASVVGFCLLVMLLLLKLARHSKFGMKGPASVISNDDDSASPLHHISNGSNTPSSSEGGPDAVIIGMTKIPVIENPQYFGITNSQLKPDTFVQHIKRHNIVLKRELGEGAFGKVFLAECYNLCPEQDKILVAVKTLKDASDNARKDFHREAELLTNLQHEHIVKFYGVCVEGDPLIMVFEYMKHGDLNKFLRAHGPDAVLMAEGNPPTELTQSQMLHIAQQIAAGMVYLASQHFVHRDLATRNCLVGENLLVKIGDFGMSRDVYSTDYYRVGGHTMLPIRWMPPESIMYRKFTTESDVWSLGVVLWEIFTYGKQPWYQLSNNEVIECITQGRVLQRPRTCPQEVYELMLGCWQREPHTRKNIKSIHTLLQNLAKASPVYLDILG
T1 sequence (P04629 33-796, species assumed): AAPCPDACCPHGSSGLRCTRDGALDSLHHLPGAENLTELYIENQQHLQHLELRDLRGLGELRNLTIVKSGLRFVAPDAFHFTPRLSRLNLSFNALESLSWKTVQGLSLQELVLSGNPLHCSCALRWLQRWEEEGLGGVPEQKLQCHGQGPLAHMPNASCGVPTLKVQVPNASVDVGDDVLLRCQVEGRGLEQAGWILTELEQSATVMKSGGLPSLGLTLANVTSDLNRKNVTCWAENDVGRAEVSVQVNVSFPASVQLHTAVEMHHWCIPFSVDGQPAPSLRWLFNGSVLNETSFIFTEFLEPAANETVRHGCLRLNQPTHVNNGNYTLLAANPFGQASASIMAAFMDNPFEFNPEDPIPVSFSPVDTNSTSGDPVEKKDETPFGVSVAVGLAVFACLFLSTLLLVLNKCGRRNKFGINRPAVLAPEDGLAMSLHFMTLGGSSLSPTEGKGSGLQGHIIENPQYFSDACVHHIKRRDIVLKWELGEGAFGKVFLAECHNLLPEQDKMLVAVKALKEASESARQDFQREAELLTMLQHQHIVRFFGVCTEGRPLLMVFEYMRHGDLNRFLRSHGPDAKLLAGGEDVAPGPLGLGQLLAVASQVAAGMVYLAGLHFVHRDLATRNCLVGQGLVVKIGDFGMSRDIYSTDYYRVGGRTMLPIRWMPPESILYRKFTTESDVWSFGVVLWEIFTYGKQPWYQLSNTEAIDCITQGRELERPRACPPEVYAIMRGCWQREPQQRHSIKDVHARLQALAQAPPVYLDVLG

## NGF^SNAP: recombinant NGF^SNAP protein
[1]
  binding to TrkB cells: not TrkB or TrkC
[2]
  binding to TrkC cells: not TrkB or TrkC
[3]
  mechanical hypersensitivity provoked by the ligand: strong sensitizing effect; also recorded: induces mechanical hypersensitivity

B1: IL31^SNAP-IR700: IL31^SNAP conjugated in vitro to benzylguanine modified IRDye®700DX phthalocyanine (conjugate)
chain: TCSLSFGAPISKEDLRTTIDLLKQESQDLYNNYSIKQASGMSADESIQLPCFSLDREALTNISVIIAHLEKVKVLSENTVDTSWVIRWLTNISCFNPLNLNISVPGNTDESYDCKVFVLTVLKQFSNCMAELQAKDNTTC
modifications: left off: small tags and cut ends
notes: IL31^SNAP conjugated in vitro to benzylguanine modified IRDye®700DX phthalocyanine
[4]; IL31RA^−/− keratinocytes
  cell death after illumination: not evident
[4]; wild type keratinocytes
  cell death after illumination: substantial cell death
[5]
  TUNEL positive apoptotic cells in skin: largely absent
[6]
  scratching bouts: progressive decrease in scratching bouts

B2: IL31^K138A-SNAP-IR700 (conjugate)
chain: TCSLSFGAPISKEDLRTTIDLLKQESQDLYNNYSIKQASGMSADESIQLPCFSLDREALTNISVIIAHLEKVKVLSENTVDTSWVIRWLTNISCFNPLNLNISVPGNTDESYDCAVFVLTVLKQFSNCMAELQAKDNTTC
modifications: left off: small tags and cut ends
[7]; [16]
  LY344864 evoked itch: no significant effect
  chloroquine evoked itch: no significant effect
  histamine evoked itch: no significant effect
[7]; injected but not illuminated (control)
  IL31-evoked scratching: no reduction in IL31-evoked scratching
[7]; three consecutive days treatment with near-IR light
  IL31-induced scratching behavior: abolished
[7]; with near-IR light, observation period
  persistence of abolished IL31-induced scratching: ≥ 8 week
[8]
  thermal sensitivity (hot plate test): no difference in response properties
[9]
  mechanical sensitivity (von Frey filaments): no difference in response properties
[10]
  effect of photo-ablation on other cell types: does not affect other cell types such as keratinocytes or epidermal Langerhans cells
[11]; prevention: identical experiments in the absence of near IR illumination
  development of dermatitis-like symptoms: normal development of dermatitis-like symptoms
[11]; [17]
  development of atopic dermatitis-like indicators: completely abolished the development of all indicators
  scratching behavior: remained at baseline levels
  skin appearance: skin appeared healthy and typical features of dermatitis such as redness and scaling were entirely absent
[11]; rescue: after 7 days Calcipotriol, subcutaneous injection and near IR light three days, over the course of 1 week
  disease indicators of established dermatitis: rescue of all disease indicators
[11]; [18]
  scratching behavior: returned to baseline levels
  skin thickness, morphology and structure: became indistinguishable from healthy mice
[11]; rescue: without subsequent near IR illumination (control)
  reversal of dermatitis-like symptoms: not evident
[11]; [19]
  scratching behavior: return to baseline levels of scratching behavior
  skin structure and histology: normalization of skin structure and histology
[11]; topical application in water-in-oil micro-emulsion, near IR light 20 minutes later
  Calcipotriol provoked dermatitis-like symptoms: both prevented and reversed Calcipotriol provoked dermatitis-like symptoms

B3: BDNF^SNAP: recombinant BDNF protein with a SNAP-tag fused to its C-terminus (protein, UniProt P23560 19-247, looked up)
Neurotrophic factor BDNF …: APMKEANIRGQGGLAYPGVRTHGTLESVNGPKAGSRGLTSLADTFEHVIEELLDEDQKVRPNEENNKDADLYTSRVMLSSQVPLEPPLLFLLEEYKNYLDAANMSMRVRRHSDPARRGELSVCDSISEWVTAADKKTAVDMSGGTVTVLEKVPVSKGQLKQYFYETKCNPMGYTKEGCRGIDKRHWNSQCRTTQSYVRALTMDSKKRIGWRFIRIDTSCVCTLTIKRGR
modifications: C-terminal SNAP tag
notes: recombinant BDNF protein with a SNAP-tag fused to its C-terminus
[12]
  binding to HEK293T cells expressing TrkA/p75: did not bind
[13]
  binding to HEK293T cells expressing TrkB/p75: remarkable selectivity for its cognate receptor complex TrkB/p75
[14]
  binding to HEK293T cells expressing TrkC/p75: did not bind
[15]
  overlap between BDNF^SNAP and TrkBCreERT2 positive cells: > 95%
